Columns and labels:
[1] = target: HIV-1 AD8 gp41 W596L/K601H (HIV-1 AD8)
[2] = target: HIV-1 AD8 gp41 W596L/K601H/D674E (HIV-1 AD8)
[3] = target: HIV-1 AD8 gp120 surface glycoprotein; assay: Western blotting of pelleted virions (virion-associated gp120 normalised to p24); details: virions from 293T cells transfected with pAD8 proviral clones; virions were analysed at 48 h posttransfection; parent: 2.16
[4] = target: HIV-1 AD8 gp120 surface glycoprotein; assay: immunoprecipitation of pulse-chase biosynthetically labelled Env from cell lysates (c) and supernatants (s), SDS-PAGE and phosphorimaging; details: transfected 293T cells; cellular Env was analysed 5 h post synthesis; parent: 1

Row | Substance | neutralization of HIV-1 AD8 virus in TZM-bl cells (luciferase), C34 IC50 against that for WT virus (log10 decrease against WT) [1] | neutralization of HIV-1 AD8 virus in TZM-bl cells (luciferase), C34 IC50 against that for WT virus (log10 decrease against WT) [2] | other: gp120 pixels/p24 pixels [3] | ratio to parent [4]
1 | C34 fusion inhibitor peptide | 0.5 | 0.5 |  | 
2 | HIV-1 AD8 gp41 transmembrane glycoprotein, wild type W596L; K601H |  |  | 0.93 | 3.37
3 | HIV-1 AD8 gp41 transmembrane glycoprotein, wild type W596L; K601H; D674E |  |  | 1.07 | 3.59
4 | HIV-1 AD8 gp41 transmembrane glycoprotein, wild type WL/KH/DG |  |  | 0.8 | 5.36
5 | HIV-1 AD8 gp41 transmembrane glycoprotein, wild type WL/KH/DN |  |  | 0.67 | 3.96
6 | HIV-1 AD8 gp41 transmembrane glycoprotein, wild type ΔTW/WL/KH/DN |  |  | 0.6 | 4.13
